US20070020327A1
Read-outs that look alike come from different tables or passages of the source. Values belong to the binder of their own block, whether it stands above or below them.

Legend:
[1] = target: HLA-A*0201 (human); test: competitive inhibition of 125I-labelled standard peptide binding to purified HLA, gel filtration
[2] = target: HLA-A*0201 (human); test: competition with 125I-labelled standard peptide for purified HLA, gel filtration; conditions: for binding affinity ratio: remark: other sources report otherwise, scale: ratio
[3] = target: HLA-A*0202 (human); test: as above
[4] = target: HLA-A*0206 (human); test: as above; conditions: for binding affinity ratio / binding affinity ratio (IC50 of standard peptide / IC50 of test peptide): remark: other sources report otherwise; for binding affinity ratio: scale: ratio
[5] = remark: other sources report otherwise

binding affinity ratio (ratio to standard peptide) [1]: 0.0002
B1: … (PSM, position 193) (peptide)
peptide: KINCSGKIV
modifications: not checked

binding affinity ratio (ratio to standard peptide) [1]: 0.0002
B12: … (PSM, position 199) (peptide)
peptide: KIVIARYGKV
modifications: not checked

binding affinity ratio (ratio to standard peptide) [1]: 0.0001
B14: … (PSM, position 200) (peptide)
peptide: IVIARYGKV
modifications: not checked

binding affinity ratio (ratio to standard peptide) [1]: 0.0002
B16: … (PSM, position 623) (peptide)
peptide: KTYSVSFDSL
modifications: not checked

binding affinity ratio (ratio to standard peptide) [1]: 0.0001
B20: … (PSM, position 122) (peptide)
peptide: KTHPNYISII
modifications: not checked

binding affinity ratio (ratio to standard peptide) [1]: 0.0001
B22: … (PSM, position 723) (peptide)
peptide: KAWGEVKRQI
modifications: not checked

binding affinity ratio (ratio to standard peptide) [1]: 0.0001
B24: … (PSM, position 193) (peptide)
peptide: KINCSGKIVI
modifications: not checked

binding affinity ratio (ratio to standard peptide) [1]: 0.0003
B25: … (PSM, position 304) (peptide)
peptide: KLLEKMGGSA
modifications: not checked

Continued, binder first:

B2: Kallikrein (hK2) peptide … (position 11, 11 amino acids) (peptide)
peptide: SVGCTGAVPLI
modifications: not checked
binding affinity ratio [2]: 0.01 | binding affinity ratio ([3]; remark: other sources report otherwise, scale: ratio): 0.001

B3: peptide 1126.10 (PSM.27) (peptide)
peptide: VLAGGFFLL
modifications: not checked
IC50 [3, 5]: 0.2 nM

B4: Kallikrein 243 peptide … (peptide)
peptide: YTKVVHYRKWI
modifications: not checked
binding affinity ratio (IC50 of the standard peptide / IC50 of the test peptide) [2]: 0.0001 | binding affinity ratio (IC50 of the standard peptide / IC50 of the test peptide) [3]: -0.0001 | binding affinity ratio (IC50 of the standard peptide / IC50 of the test peptide) [4]: -0.0001

B5: … (PAP, position 234) (peptide)
peptide: KLRELSELSL
modifications: not checked
binding affinity ratio (ratio to standard peptide) [1]: 0.004

B6: peptide 1419.13 … (HuK2.120.V11) (peptide)
peptide: DLMLLRLSEPV
modifications: not checked
IC50 [1, 5]: 50 nM

B7: … (PAP, position 282) (peptide)
peptide: KLIMYSAHDT
modifications: not checked
binding affinity ratio (ratio to standard peptide) [1]: 0.0002

B8: peptide 1129.08 (PSM.711) (peptide)
peptide: ALFDIESKV
modifications: not checked
IC50 [3, 5]: 0.7 nM

B9: … (PSA, position 119, 11 amino acids) (peptide)
peptide: LLRLSEPAELT
modifications: not checked
binding affinity ratio [2]: 0.0023 | binding affinity ratio [4]: 0.0002

B10: … (Kallikrein, position 226) (peptide)
peptide: ITSWGPEPCAL
modifications: not checked
binding affinity ratio (ratio to standard peptide) [1, 5]: 0.0003

B11: PSA 142 … (peptide)
peptide: PALGTTCYA
modifications: not checked
binding affinity ratio (IC50 of standard peptide / IC50 of test peptide) [4]: 0.0002

B13: … (Kallikrein, position 131) (peptide)
peptide: KITDVVKVLGL
modifications: not checked
binding affinity ratio (ratio to standard peptide) [1, 5]: 0.0002

B15: Kallikrein (hK2) peptide … (position 175, 9 amino acids) (peptide)
peptide: SLHLLSNDM
modifications: not checked
binding affinity ratio [2]: 0.0003 | binding affinity ratio [4]: -0.0001

B17: … (PSM, position 122) (peptide)
peptide: KTHPNYISI
modifications: not checked
binding affinity ratio (ratio to standard peptide) [1]: 0.0002

B18: PSA 239 peptide … (peptide)
peptide: YTKVVHYRKWI
modifications: not checked
binding affinity ratio (IC50 of the standard peptide / IC50 of the test peptide) [2]: 0.0001 | binding affinity ratio (IC50 of the standard peptide / IC50 of the test peptide) [3]: -0.0001 | binding affinity ratio (IC50 of the standard peptide / IC50 of the test peptide) [4]: -0.0001

B19: Kallikrein 129 … (peptide)
peptide: PAKITDVVKV
modifications: not checked
binding affinity ratio (IC50 of standard peptide / IC50 of test peptide) [3, 5]: 0.01 | binding affinity ratio (IC50 of standard peptide / IC50 of test peptide) [4]: 0.0006

B21: … (PSM, position 66) (peptide)
peptide: KAENIKKFL
modifications: not checked
binding affinity ratio (ratio to standard peptide) [1]: 0.0002

B23: peptide 1126.14 (PSM.469) (peptide)
peptide: LMYSLVHNL
modifications: not checked
IC50 [2]: 64 nM | IC50 [3]: 0.4 nM
